Results: US10745461B2, “Pulsed introduction of low-dose RANKL as a therapy for diet-induced atherosclerosis” (Saint Louis University, priority 2015, dated 2020)

Key:
IL-17A and TNFα = assay: WD-fed ovariectomized WT mice: TcREG and IL-17A/TNFα production by peripheral blood T-cells; format: in vivo; conditions: for peripheral blood T-cells that express TNFα and/or IL-17A (flow cytometry) / IL-17A and TNFα produced by freshly isolated peripheral blood cells (ELISA): WD-fed OVX WT mice
Description: (§1) It has been previously shown that low-dose RANKL (IdRANKL) induces TcREG in bone marrow. We postulated that induction of TcREG might be atheroprotective as it protects against osteoporosis in ovariectomized mice. To test that proposal, we first tested the ability of IdRANKL to modulate the systemic availability of proinflammatory cytokines. Thus, a new group of WT mice were fed WD, and subjected to sham or OVX surgeries, then dosed with saline or IdRANKL (two i.p. injections 3 and 7 weeks after OVX). […] We then, measured the ability of freshly isolated T-cells from peripheral blood to produce IL-17A and TNFα. […] Zoledronate is a bisphosphonate that is used clinically to prevent bone resorption (by suppressing osteoclasts). […] Without being limited to any particular theory of operation, we hypothesize that these cells contribute to postmenopausal comorbidities such as atherosclerosis and osteoporosis, and that immunosuppressing therapies such as pulsed IdRANKL will have cardio- and osteo-protective effects.

[1] = tested on: FoxP3+ CD8 T-cells (TcREG); assay: In vivo TcREG induction: GFP negative CD8 T-cells adoptively transferred into OT-I Rag-/- mice
Experimental: FIGS. 1A, 1B and 1C indicate that TcREG are induced by activated osteoclasis. […] In the absence of RANK L treatment, very low level of conversion was observed after three days. […] ZA was administered intravenously one week prior to adoptive transfer of CD8 T-cells.
It was first determined the dose of RANKL that produced the maximal number FoxP3^+ CD8 T-cells in the bone marrow. RANKL was administered into FoxP3-GFP reporter mice at various doses for two consecutive days. Fifty hours after first dose, the mice were sacrificed and the numbers of CD8 T-cells that were GFP positive cells in the bone marrow were measured. […] The increased levels of FoxP3 in the bone marrow could either be due to recruitment of TcREG to the bone marrow or induction of FoxP3 expression in cells that were FoxP3 negative. To test for induction FACS sorted the GFP negative population of CD8 (Thy 1.2+ that were CD44 negative or naïve) from the spleens and bone marrow to high purity (FIG. 1C first panel) and adoptively transferred them into congenically marked (Thy 1.1) OT-I Rag^−/− mice. […] In the absence of RANKL administration low levels […] CD8 T-cell were detected (FIGS. 1B and C second panel), but RANKL administration (0.125 mg/kg) yielded ˜1% […] Thy 1.2 T-cells (FIGS. 1B and 1C third panel). […]

[2] = tested on: atherosclerotic lesions in the aortic root; assay: WD-fed ovariectomized LDLR-/- and WT mice dosed with saline or IdRANKL: weight, cholesterol, atheroma, BV/TV; format: in vivo; conditions: for atheroprotection / effects of OVX on atherogenesis / bone loss (BV/TV): LDLR-/- and WT mice; for reduction of plaque size compared to non-treated animals: WD, OVX; for body weight gain: ovariectomized WD-fed LDLR-/- and WT mice
Experimental: Ovariectomized (OVX) mice were treated with saline control or pulsed low-dose RANKL at 3 and 7 weeks post-OVX. RANKL was administered at 0.125 mg/kg twice at 0 and 24 hours for each treatment time point.
In order to define the contributions of menopause, LDL-cholesterol, and diet to postmenopausal morbidities, 10-week-old wild-type (WT) and (LDLR−/−) mice were placed on normal (ND) or western (WD) diet and we performed sham-surgery or ovariectomy two weeks after die diet switch. This regimen is intended to mimic the conditions of patients, who presumably already have fatty streaks in their vasculature by the time menopause ensues. All animals were sacrificed at 19 weeks of age, when hearts, long bones, and blood were collected.
as §1
To test this hypothesis, a new group of LDLR−/− and WT mice were fed WD and ovariectomized as discussed previously, and dosed with saline or IdRANKL as above. […] The underlying mechanism for this limiting weight-gain following induction of TcREG is not known, but warrants further study. […] This beneficial effect was more pronounced in WI mice, where plaques were reduced by 80% in size, compared to non-treated animals. In LDLR−/− mice, the reduction was more modest at 35%. […] We conclude that IdRANKL likely exerts protective effects in the aorta and the bone via TcReG-mediated suppression of TEFF proinflammatory activity (e.g. production of IL-17A and TNFα).

atheroma plaque = assay: Male LDLR-/- mice on western diet, pulsed low-dose RANKL; format: in vivo; conditions: 9 weeks
Experimental: FIGS. 22 and 23 extend the evaluation of the effect of pulse RANKL treatment to male LDLR mice. Surgery was, unnecessary in this case, so all mice were simply placed on the western diet at 10 weeks of age. Two weeks later one-half of the mice were treated with pulsed low-dose RANKL as contemplated elsewhere herein and the same group was treated again 6 weeks later. Time of treatment is indicated by the arrows in FIG. 22. […] All mice were sacrificed 9 weeks after the start of the experiment and plaque volumes were compared between the two groups.

B1: receptor activator of NF-κB ligand (protein, UniProt O35235 139-316, looked up)
Tumor necrosis factor ligand …: FSGAPAMMEGSWLDVAQRGKPEAQPFAHLTINAASIPSGSHKVTLSSWYHDRGWAKISNMTLSNGKLRVNQDGFYYLYANICFRHHETSGSVPTDYLQLMVYVVKTSIKIPSSHNLMKGGSTKNWSGNSEFHFYSINVGGFFKLRAGEEISIQVSNPSLLDPDQDATYFGAFKVQDID
modifications: GST tag
peripheral blood T-cells that express TNFα and/or IL-17A (flow cytometry) (IL-17A and TNFα): abrogates OVX-induced increase in peripheral blood T-cells that express TNFα and/or IL-17A
IL-17A and TNFα produced by freshly isolated peripheral blood cells (ELISA) (IL-17A and TNFα; listed as IdRANKL): abrogated the ability of circulating T-cells to secrete IL-17A, TNFα, or both
peripheral blood T-cells that express TNFα and/or IL-17A (flow cytometry) (IL-17A and TNFα; listed as IdRANKL): prevented such increase
IL-17A and TNFα produced by freshly isolated peripheral blood cells (ELISA) (IL-17A and TNFα; listed as low-dose RANKL): abrogates OVX-induced increase in TNFα and IL-17A expression
numbers of CD8+ FoxP3+ cells in the bone marrow (IL-17A and TNFα; WD-fed WT mice, two i.p. injections 3 and 7 weeks after OVX): increased
TcREG induction by RANKL ([1]; 0.125 mg/kg, 50 hrs after RANKL treatment, 3 days after T-cell transfer): robustly induced TcREG
GFP+ Thy 1.2 T-cells after RANKL administration ([1]; RANKL 0.125 mg/kg, OT-I Rag-/- recipients): ~1%
atheroprotection / effects of OVX on atherogenesis [2]: eliminated the effects of OVX on both osteoporosis and atherogenesis
total cholesterol in serum ([2]; LDLR-/- and WT mice (FIG. 20G)): does not significantly alter total cholesterol in serum
atheroprotection / effects of OVX on atherogenesis ([2]; listed as IdRANKL): atheroprotective
bone loss (BV/TV) ([2]; listed as IdRANKL): pronounced effect on preventing osteoporosis
bone loss (BV/TV) ([2]; listed as low-dose RANKL): prevents bone loss
serum cholesterol ([2]; LDLR-/- mice): slightly decreased
reduction of plaque size compared to non-treated animals ([2]; LDLR-/- mice): 35%
reduction of plaque size compared to non-treated animals ([2]; WT mice): 80%
body weight gain ([2]; listed as IdRANKL): ameliorated body weight gain
body weight gain ([2]; listed as low-dose RANKL): reduces body gain weight
plaque volumes (atheroma plaque): plaque volumes were reduced in the treated group
weight gain (atheroma plaque): weight gain in the treated mice was reduced
